Earlier results on one substance are cited in article PMC2783296.

The data set addresses Glu134 (UniProt position 134, VVLAIERYVVV). Briefly: IR. Particulars: Photoactivated metarhodopsin II (all-trans retinal, unprotonated Schiff base).

In general, pKa refers to the pH at which an ionisable group is half protonated. On to “Rhodopsin (metarhodopsin II photointermediate) (Bos taurus (inferred; species not stated in the article))”, for which the pKa was 6.3.
